This note sets out measurements from publication PMC9119445, “Ustilago maydis telomere protein Pot1 harbors an extra N-terminal OB fold and regulates homology-directed DNA repair factors in a dichotomous and context-dependent manner”.

The target in series [1] is Ustilago maydis Rad51 (U. maydis) (UniProt Q99133).
Series [2] has as its target UmPot1 N-terminal fragment (OB-N) (Ustilago maydis, UniProt A0A0D1CUA9 1-350). Description: EMSA; 25 mM HEPES-KOH pH 7.5, 5% glycerol, 3 mM MgCl2, 0.1 mM EDTA, 1 mM DTT, 0.5 ug/ul BSA, 1-10 nM probe, 22 C, 15 min; 6% native PAGE in 1x TBE. The following applies: protein: recombinant; tags: C-terminal FLAG; His6-SUMO removed by ULP1; label: 5'-32P. Background: A gel shift assay detects complexes by their altered migration in electrophoresis.

Another series addresses UmPot1 OB12 (OB1-OB2) (Ustilago maydis, UniProt A0A0D1CUA9 351-700). The series is described as above. The following applies: protein: recombinant; tags: C-terminal FLAG; His6-SUMO removed by ULP1; label: 5'-32P.
For the next series, the target named is UmPot1 OB3 (Ustilago maydis, UniProt A0A0D1CUA9 701-1050). The series is described as above. The following applies: protein: recombinant; tags: C-terminal FLAG; His6-SUMO removed by ULP1; label: 5'-32P.

Chain of Ustilago maydis Rad51 (U. maydis) (Q99133 whole entry, the tested form may be a part): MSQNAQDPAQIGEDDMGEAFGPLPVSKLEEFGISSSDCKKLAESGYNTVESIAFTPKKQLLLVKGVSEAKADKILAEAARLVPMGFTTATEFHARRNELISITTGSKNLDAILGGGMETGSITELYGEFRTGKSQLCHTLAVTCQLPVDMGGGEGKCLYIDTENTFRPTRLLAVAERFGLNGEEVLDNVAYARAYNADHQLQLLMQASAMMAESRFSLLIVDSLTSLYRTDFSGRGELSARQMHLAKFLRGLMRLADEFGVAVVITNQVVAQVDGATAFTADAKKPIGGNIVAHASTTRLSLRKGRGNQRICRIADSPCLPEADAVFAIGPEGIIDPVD

“Ustilago maydis Pot1 with a C-terminal FLAG tag (Pot1-FLAG) (natural protein)” displayed a strand exchange activity of Rad51 (oligonucleotide-based assay, 70-mer ssDNA and labeled 39-mer dsDNA), stimulation by Pot1 in series [1] of 2 fold.
In the case of TTAGGGTTAGGGTTAGGGTTAGGG (ssDNA) [TTAGGG4 (G4)], the binding result in series [2] is given as “no binding”; in the series with UmPot1 OB12 (OB1-OB2), “binds”; with UmPot1 OB3, “no binding”.
